Measured values from publication PMC4219626 (Nature structural & molecular biology, 2014).

B2: Rrn7 (recombinant, His6-tagged) (natural protein, S. cerevisiae, UniProt P40992 1-514, looked up)
chain: MSTFIRGPICGTDNCPSRLWRIIDGRRTCQYGHVMEGDVEFNDDEDDLNGLGAGVITRRLNLTTNATGSFQSSQLTNSQLLQQQQRQSHKKFKKLIGHEAKLLFLKSFQFILKRQIRWLITEMRFPKEFEHVAKIIWLKILKTINDQPQEELKLQLHMTSTISILYLASTHLSLPVYTCDYIKWICTAKMPYFQASEILPKSWRIQLPNYYVSILEGSISPFNGQLYNKIALTCGMIHFKEFFNSEISCQGLLLKLVMQCALPPEFYFYTKQVIEFEETDIRNLTLWERTDERHTGRVSNHAELRVLSYFMLTINWMLSFDRDRQYPLKWILSLTESLTQRTTTSESIGRNIVKVVYPDKPTSSDYFQWSEEETLEFLKWMEKQFLPTQTKSLHNENGSMEMTIDQKIARRKLYKIFPLDREANHDGEFNDSTHQLTFIEDLQERYAKQTPFFESNKIRDSLNYQEANPPARKEAIGRLLTHIASQLLVDFAISKEQLKDCISRIKNACLHRMN
B3: Rrn11 (recombinant) (natural protein, S. cerevisiae, UniProt Q04712 1-507, looked up)
chain: MFEVPITLTNRKFAQRRKLKYQYINYISRRFDRISKKSTTTDSLPTPENSAAENNDEEEGQNSEAGTYRRSVLQQKKRRRERHWRSVVGEIYSTTESETDSQEEETEEGGEHDTGIDKEDSDEERKFWKKYEKPEKSFEIWRTVSSQNKQPINKQKMTYHNFKKIEKIPLRKMEIPLLHCTKENKLYFQSISRGLEPLKTSTSEVRNYRTRHIVTLTDLLHLNVSRHNWSLAYKIFATLIRIPGVQIKSLWGIGVEILDNLSNSSSGLDFLQWMCQIYSSKSRFVQNINYRSIVPPFQTGSRTHTAKFAITYLWSSLINCQKSMEPSSNIIDKPFDTENDLLQELIDKISEWVLTPPFMEDAEVWFIYASCHLLKADTLSRQFVNDNKNNDLIGLDRDIKINQVIKHIHYVRTFLKICLDKGGFAVPSRLIENQLKSFESRLYGEAQDIQERDVANVYDSIDNSSVENSFGDVYETNAEFLDTQLMDLSPEDNGLDEMHYSDEDSSE
B4: Rrn6 (recombinant, His6-tagged) (natural protein, S. cerevisiae, UniProt P32786 1-894, looked up)
chain: MSEGQIPSSDVLGSQLGVGVQGASLYCPQENYTTKKQEKPQWLRPVDDTLAEDALDLHIVVKSLLCDTAIRYISDDKVLQESDADDDLITSDIDEDTDNQGDTSIVVNPVIPVVPKDVHFFKKVDVGNDSMFGVNCDTPVSFQDYIPSDLLRNLDDTLQESTNSSRPMQDAFFWDPTVANRLDSQYIQTASDLRNYRDGTEIIAYASGKTGSVLNIAVLTRQNTLHLNRHNNVTSIELHSPIKSIKIPGASESIGRRSNLVGIITENSFQIFRIESVHSRSCDVMVSSSEPLYFVEIDDLQVVDFAFNPWDLQQFAIIDIKGNWSIGRIPKNFNNNNKRKLQLIDNLHGTIFDPEELSSWKRIEWFSHFQKILVFDRSKMIEIDFMNNWQTEVVQAKAWSNIRDYKRIDDKNGILLTSREIIIVGASESNDPVRRISWKHDLDPDDTTLRITVQKVKKPDHILLVAFVYSMRHKRIYMHVFSHRKANLFQSLGCSTVLEIPGGTPTGIETILTLDHIDDESRREEDADENFELVVDFLVKLRNSSEVYYYALSNTQNSEPNKQETPIIVDHPEWASLFNNADEREKESIGALVSQIKLKERERISRVQNLIEHENSHDEDKYLQDLGYRLSIATNELLESWQKTKDESILSGSLSHSKLKNLLENSDSFASIPEFSSLLDQFFQYYQDQDVTFIGFEKLLHLFLHEDVPGLDIFYNKLLQCWVLVSPQAELLTKEIVKDIIWSLARLEKPSLFEPIQNEISRSLSGPYQDIISSWDMDDINEEDESNEFNFDSQFSAPFNGRPPFNLNSQSQIPTIKSSQSSGLARRKRILKTQSQKATPLSQSTQNLSVLPDSMTPAFTLMQPPSSQISFVNDSQPRNSQKAKKKKKRIRGFG

Experiments:
[1] = molecular target: B2; experiment: cross-linking
Rrn11 (recombinant) = molecular target: B3; experiment: cross-linking
[2] = molecular target: B4; experiment: cross-linking
[3] = molecular target: B4; experiment: co-purification
[4] = molecular target: B2; experiment: cross-linking; remark: listed apart in the source
[5] = molecular target: B4; experiment: cross-linking; remark: listed apart in the source

B1: TATA binding protein (TBP) (natural protein, S. cerevisiae, UniProt P13393 1-240, looked up)
chain: MADEERLKEFKEANKIVFDPNTRQVWENQNRDGTKPATTFQSEEDIKRAAPESEKDTSATSGIVPTLQNIVATVTLGCRLDLKTVALHARNAEYNPKRFAAVIMRIREPKTTALIFASGKMVVTGAKSEDDSKLASRKYARIIQKIGFAAKFTDFKIQNIVGSCDVKFPIRLEGLAFSHGTFSSYEPELFPGLIYRMVKPKIVLLIFVSGKIVLTGAKQREEIYQAFEAIYPVLSEFRKM
B1: binds [1]; binds (Rrn11 (recombinant)); binds [2].

B2: binds [3].

With B3 the “stoichiometry N” value [4] was 1 and the “stoichiometry N” value [5] was 1.

With B4 the “stoichiometry N” value [4] was 1.
